This note sets out measurements from paper PMC11098746 (2024).

The chains are these.
B1: 72 (protein)
chain: SNHIKSVNRCFIPFISEYIYKQKNRKNNIAYDSSNSHYNDKIIPCGNYNKQLKYKINFCRNLYFNNKNEYNRICSRNKLNFHNIQTDNTIYKPKKKYYEVGKVREKIKMYTLFKDDKINTLKCNEEESVTSETINKHDSSVKVKGRRKKNIASNENIMNPNNKAVSSINTNLADSSNNKNDNSLNSKKNDNTLNSKKNDNTLNSKKNDNTLNSKNNNNALNSKNNNNALNSKKSNNAYNDKHIDHIIPEGKNKINNNIDVKHNINNKLNEINEEPYEDTHNKEENSANKNDNDEKRKEENNNIARRYIKNDQMSYNNINTNSNEYDKNAATLDETYIGKTFEGYVYSVNKNAACIKLKNINKYGLLFKNKANLGDDIEDMNDFFEKDQPVHVKILGINTKKNIFYLGNIIKYNENIKLSKGEYSKGLITKVCDSYCFIKVLKNGATGYLHKSKLFCMNDKEKKNNDNQNYDNPNNDNPNYDNQNYDNQNYNNPNYDHPNYDNQNYDNQNYNNPNNDYSTSQLYNSDNLQMDFIYKLQFTKIFNIWDIIDVEILGTPQNDYKSNYILTIPRGSKTFKKILNYLNVLKENEDINNIQYKGDYIYSIDNNKNDNIIDSDINNHHINNKKKKKNLYDIQNNMNHAPFNKFHTEDEYLFNDHVQENVHTFYEKNKKYKITYDKENNHKMNKAYYLKKNKELPFNNKFKKIIKNIYDLPNTISLSMLSKTIKIPLASIKKYFIIHENKEYNSAYKINSEQIKRICQHFKIDCNVEQRDDNVVTKVNGATKDCQEKVFKNVAQDRLKEGEQERVIKVEAKIKNDEMVMQEQKDTKEEKHMDVQFIEEKDINVQHINVQDMDVQDMDVQDINVQDMDVQNINVQDINIQDMDVQNINNAITLNKATSCQTDESRDAPGGDQNEALDEKDSMEKSKEKKKKKGKSRKKNKDTNLALKSDSIQKSKTTLDDKKRNVVVTFIGHINHGKTSLFDYICKTNEQKKEYGLITQNIRAFKATVRNNFAFTLVDTPGHEAFMPMRSRGVKISDLSILVISGDEGIQEQTVECIKLIKEFNIKIIIAITKVDIPNVDVDRIINDLLYHDITTELNGGEIQVVECSIYKEESIDKLLDAIYLESEFLNLQTNPDKKHEQAQGVVLDSYIDKNGIVSINLLQNGVLNINDHFYTGSSYGKVKILKDHLNKNIKSAYPSDPIKIIGYNKNSVPVAGDKFYVVENEALAKEIAEHNKNKMLTMEINNFAYDQTNMNRYKDFIISRENKIGGSSGILGENNLKNDIDGNMARDDNMARDDNMASDDNMARDGNRANNDNIASDDNMANDYDKIKETKMYTNNKAFQKDDFLKIHLNNANENVINMDPSTHIGKNEIKTIYSNYIIKCDKQGSIEVLKNCMLKLQKEDSICKIKNKIIYADIGNVASSDIKYATSFNAAIIAFGVKLSNDIKGSKNSKGSKNHNNYPIIYSNVLYELIENVEKEMEKKLSKKPMGELKGTAQILKVFNIAKLGKVAGCIVKKGTISINSNIRILRNDKVIYMGKIISIKIVKEEKTQVTEADECGIGFDNFLDFEPNDIIEAYEN
modifications: bait human Fc-tagged dimer
B2: 34 (protein)
chain: TKKKVSVSEINFDSAVDDVQWCGNNHMTVLVKTVKGRLYRSSDGGKIWTNIAGNLADKENNKADPSSNHMNEMTTVDLIMVNSVNKNIVLIIGNQKNHYISEDSGETFRLLNYQNKINFWQFHSTKTHWALVSSWTEACYSNDDNSGECMQTLSLTKDLGRTFQLIDIYVVQFNWGDKESHLEDTIYYTRHKNRNGHQQRFSGWSKDVDFVATHNFGKSVDVLVKQGNKFLISNGYIFVAKLNDVIKQTVNMMVSTDGGKTFNKANLPENIHEKSYTVLDTSEGSIMLHVNHGTSSEKINTGNVYISDASGLNYALSLPNNIRTSSGECEFDRVLSLDGVYIANFLDVNNEIKDEDLRFQNFKSAIEEDIAPFETNTEKRKKQYNKGKNEDAVRTVISFNKGGEWSYLKAPKVDSRGNKYECGDNCYLHLHGITNYHQYAPFYSIENAVGIIMGTGNVGSHLRYESDEVNTFLSRDGGVTWIEAHKGPYIYEYGDYGGLIVMADDLRKTNQIVFSWNEGQSWFDFELGQFSIDVDNIVAEPNSASVEFLVYGTRNDVGVLYHLDFNALGQPLCKGLWAADSVSSDYETWSPTSGNFNDKCILGRKITYTRRKQTSECFNGKDLKRTVDKKPCECTPEDYECETGFTRKIGSYECKPNDPTLTIEGCTSSSYFYANAYRKVPGDICVNGWVPEKVPVPCPSYAPFNKAAK
modifications: bait human Fc-tagged dimer
B3: 50 (protein)
chain: ANAFYVDNGQEMLIKEKEHYSSDSEHHKEESASIGNLNVFFPAENYHFSTYMGFDRRSFLPSNEIELEKMIGANFANEVKNYCSRQNVAQKIGDYLNIAFEYSRALEELRSEMILDFNKRKHLTNNADDTILHMIENAEKRKNDPNYKEAYENKDYANNANIFMNEYSNPLSTKYNKILKEYLCHLFVNNPGTKPLERLYYNSLALGELVEPIRNKFKSLASSTIDFNYEIHMASASNIYLLAHFLVLSLAYLSYNEYFTTGTKSFYSLPTILTANSDNSFFMLNEMCNIHYNPNKNFKKDITFIPIESRPKRTTTFYGERRLTCDLLELVLNAIMLININEINNVFSNNNVDGYENSLSFSHNAIRIFSKVCPKINNDNVLKCEFEESSLYNPKIIKNDASEKSSQKNLKKAFDLLRTYAEIEGHSAEGSTSPYYVSLILDDMKYNDFYKYTLWYEPRELIYGDIRGMQMKKKKKTKYIYNDFMKKSTQLKKKLIKNDLKYNLKSKGLVFLYAMIDKYGSILNKAQKAKVQFLNSASSIRYYLYLNKVIFKSAKTYLDIMKRVLEELQTSTNTPLKFLVRGNYIENINNIARNDNMFYANLFVLTALSRRDPVKDYYNDKRKMLSATLAEKFANSASMLIPHKLRKLVVSMKKGLLKKKLLTSLAKVKLLQHIPAHMLENIASSIRFTTHTIATMQIIQNAKYMSKHNFAQYDSKGMLARQIFTKGGFAEYADNLMAKWFSKGFEEYKREQIENFKMENSIDSELKDSEREDENDASEESAKKKLQDLQLEEREKMKKENSLLFNQADKWDQFINKELVRALGLWLEFNDNPANAASFVYKVVEDSKHLLENNIDNNIIFSRTVKPTKQTAFRRFFNKILSLGNMLLRKPSFRVEHALWFGATIDIKKAFILLEKVSELHKMLNNQDESWLINEAFIEIVDHVVDLSTYKHVREPFGVARNPGMMAINPKYAELSHENRLRELQNSMCADHCSSVWKVISSFALHHLKNPDSLHTYESKFSKNSFGNKIDDKDFVHNFKMILGGDAVLHYFDNLLPKTMKKDLKAMKYGVSLTSAYSLKLTKIIFSQMQLPYLSQMFYMQAPYFGHFIGKWQKKRQQSRLKEIMSFMTLGSLSAYTLFSAMDITQQAKDIGAGPVASCFTTRMSPPQQICLNSVVNAALSTSTQSAMKCVFSV
modifications: bait human Fc-tagged dimer
B4: 87 (protein)
chain: LKKGNGDFIKKNGVFFQIDRDMNEPPYSVINVFYTESLLDDNLLNQLEKERKMGKYKTQNYFRKSLDNNKYFMEYSRKQKEQLEFLLE
modifications: bait human Fc-tagged dimer
B5: 45 (protein)
chain: GEEKLTKFDPVMIKEGELFGEVSYDCEYSGFLEIENDDILYYCFFVGEDDHNGLLLRKFHMDDMVWGIPMEVLITRKKINLYILTVDYILSKLILIYSFDEKIRITVFNNYMEESVMSEKISINYEILYKANMISYITYFYKNKKSLCVCGMNRNENILCTFSFDYGLTMKDDHTIEFFLKKKIPLGHYKMQVTFKETEVYFNLYNDLNEANFYELKCVKKQDEYICDIMNKIRETQEYNYKRYTYPSSEHNKYYNDHHNKQPQGKQGQQGGAPLPNLGEEENNFIYKHIVRNKYFQMIVFQKDQKCYLAWSFNSLNINDEITKEISSVPCSNVASYYRQERLIVTLKKNQLGSRNHFFLIYEKLTEKGVGCEFGVGGSLYVTKTFMNNACDMDINNMNVATTNYDEINFALIIPLSFQLNYATCFIWEENVDNNEERSSLYYLEEYTNEKEDIKVYTFYFYKYILIYKNFKKSTCTFESKNNEKLYISFRGDTYYKEYNCNILLDSCDFFLHTQSKINIAYDDDVWQVSEELYDGFVMYNGAYVSLYDVLSRSNAHGLIYIDGKENNAAINLNNIKNNNNNNNNNNNNNNAANNNNIANNANSNNAFGEHEKVITIIIPYGIPSTRTIKIEFLNKQNNEEKRWAYLRLQKNEYIMKKVIGINSADIFDLSYKYYKYNQEKIKFILNDFSETTYLGFICQTKEEIKKSLCTISLVDHSHKNMAINNLFKTNNHILPFLYDQSPPRKIQPYNQIISEFRFVLFKNFHLFLQENKINYILLKCMCSSSSSYINTQKNIELSYLITNEQVSHDFIHTPGILIRPRTNIAHNDYQKNNKGNHKGNNKANNKANDKDSNNNANNNANKNGNNHNDNNNNNQNKDIDINSNYAIHNNNEKVKRTKKKINDAPYDKQDEELPSYDFNDLLHEKKNGASVFDFNFVLFLFICITFF
modifications: bait human Fc-tagged dimer
B6: 33 (protein)
chain: SSNDKNKINKNNMPLQRGASNLKDINIHNVEKKSNMESVNNNINNAACSKNLNANKVPNVAHTGVNKKGETKNEEVEKEENENEEIEKEEIENEENQQNEEDENEENQQNEEDENEENQQMNVNVDVSAEKKNKELPEEKKELQKNSEKNINKEVIKDSNKDNTFNFHKNINTAFNKNKNIYNNNNNNNNNNKAFIEKKEEAIDMKKTHCSNNNKMCKYNNMNNHMSTNKNNNQIFEESKQNVNKPIYNLKSLGNNAFKNDEKYNENDYKNNHDDDKKKYTDDSNEENIYEERNQKILLIHLLKNIKELLNRQRQNFNNFLSFLSENYQSYEKFYKSQKYQNGKNYIDKLDQQGELKNVAVVTHSFLDMSKAANGKKDKNGVFVKLMNDQNDDGDDTKDGDDTKDEDDHKNEDDHKNEDDHKNEDDHKNEDDHKNGDDNKNGDDHKNGDDNKNGDDDNGKKSHDISDIKNIIDTILQSDDITDEQKKYLEIIKKILDLEEDVLNKEKEQLQLNKNIIEVLMGKSDELRNIAVNLKNGNGDNEASQRVDLAQNIVSNLLNFAVQLKNTGNIVYNNIQGQGELLQSIEKNIDKAENDLKKSTSVNTAFTPKNVPNTEQNDQETQTDDDINDADIDENNNANDKNNCHMYKKNNCHMYKKNNCKKYFLNSHYNNYLCKKQKKYNKNDMGNKQKDNKKFKLNEAMKNHFYNIFVKETVMLKKLYKVLFELF
modifications: bait human Fc-tagged dimer
B7: 75 (protein)
chain: NVVAPKSAEAVHTLTAKLDTENKAHQKYIDIINGVFSENMENFVFSITTSNGFTCSINKLDVIFDNKVTGMQKVFSDENVQYIKEASLEFKNNLLEYMKGVMPSENDFSNVRKEFQKVCVKYFSELRRKFFQIYRDPNNKNQNEDNVDNHMNIEEISQEFFSGFNPFGTMKIRKEQNPDLSQKDSLILNENNNDALTSADQKNNNMVPMENRAFSYSQQSSHVVSFDGHDEHVEQQEQHSGDNTQEDKDQLMDLPFNKDKVFSTFLKNVALLIEGNCAEAQQQAQEQTQEQTEEQEEEQNEKEIESDKQVQKDGEQKENDVQKKQKANAFTIQFSSSLSRKHISTTCNAASGNVFLRKGNKPFEHFNSPNFENMMKGVFGIIQNPFENGQPTFPFFKNINSISGIGNVDIPKNFMNDFLNNGNDQNTPISS
modifications: bait human Fc-tagged dimer
B8: 80 (protein)
chain: INPATLIQNHLYMYQTNNAINEENIYNMKKFSKLPIAENTRNIRHSTNDLYYEHSLNLEKPNEHFTLHNIKLICQQIYHNQPNQLNLRILAVLLSTSYKQENIANIFQNLCNNGLSCLFTIQLSKNKAFVDQNKIVHLKIIDTDDLKRNKNNNIRHKITVYYICEDLKYKNQKQQESNEFKYVFNYEQLAFLKCENYLTVQVEKLVGINYNKEFHNLNPEYISFYCSQRVICNTHIEDLYKEDDKKRKNYIFYELTYRCVPPKVCSFCGNNAACKLEKLYNKEKEITQFYNNVEYNDAGVFDRLLLNKEEEEERNKASFVANLEYNAINYDIDDMITVGSNTYHILEICKCSKDYVQEGSSCVKKEKDKIYIRYAKK
modifications: bait human Fc-tagged dimer

This experiment has as its target FGFR4 ectodomain (Homo sapiens, UniProt P22455). Nature of the experiment: AVEXIS normalised luminescence.
With B1, the binding score turned out to be 1.02.

B2: the binding score was found to be 0.648. Molecule B3 yielded a binding score of 1.17. Consider B4, for which the binding score came out at 1.61. In turn, B5 had a binding score of 1.05. Then B6, with 1.23; and B7, with 1.05.

In turn, B8 returned a binding score of 1.04.
